Results published in patent US20240252795A1, “INGESTIBLE DEVICE FOR DELIVERY OF THERAPEUTIC AGENT TO THE GASTROINTESTINAL TRACT” (BIORA THERAPEUTICS, INC., priority 2018, published 2024).
Where “and” joins values, the source holds several entries; their conditions need not be identical. Equal values may be shown once. Read-outs that look alike come from different tables or passages of the source.

Assays:
[1] = PK of regular human insulin (NOVOLIN R) after SC or intra-jejunal jet delivery, blood insulin levels; format: in vivo, swine; details: for Cmax / Tmax: IJ administration by jet delivery device, blood insulin
Experimental: A total of 18 Yorkshire female swine in good health and weighing 60-70 kg each were included in this study. Swine were divided into two groups with 9 animals per group. […] A sham surgical laparotomy was performed. […] The jet delivery device was configured with the single nozzle in an axial orientation.
Swine were divided into two groups with 9 animals per group. […] In all 18 animals, a laparotomy procedure was performed to expose the abdominal cavity. Animals remained under anesthesia during the entire procedure for the PK/PD study.
For the laparotomy in group 02, a small segment of the jejunal mucosa and serosa was exposed by midline laparotomy and the jet delivery device was inserted through antimesenteric incision.
(§1) Blood samples were kept on wet ice until centrifugation and separation of plasma. […] Glucose was monitored every five (5) minutes during the study by portable glucose analyzer (StatStrip (SS) hospital glucose monitoring system (Nova Biomedical, Waltham, MA)). At each time point, approximate 0.1 mL of blood was drawn and immediately placed on a glucose monitoring test strip, and the whole blood glucose concentration was measured by the SS in triplicate.
The animals were anesthetized for the entire ECP.

blood glucose = assay: Euglycemic clamp procedure: blood glucose and dextrose infusion rate after NOVOLIN R; format: in vivo, swine; details: for mean blood glucose level: euglycemic clamp
Experimental: as §1
A euglycemic clamp procedure (ECP) was employed to compare pharmacokinetics and pharmacodynamics of regular human Insulin (NOVOLIN® R) delivered subcutaneously (SC) in the neck versus intra-jejunally (IJ) by the jet delivery device in the small intestine. ECP was used to quantify the amount of glucose required to maintain normoglycemia after exogenous bolus of insulin. […] The animals were anesthetized for the entire ECP.

[2] = pig, in vivo
[3] = SC administration, swine, group average
[4] = SC administration, swine, individual animals

**Q.** With “NOVOLIN® R: regular human insulin (NOVOLIN® R)” as the substance, how does the Cmax ([1]; Average of 8 animals) read?
**A.** Its Cmax is 77.40 uIU/mL.

**Q.** What about the Tmax ([1]; Average of 8 animals) of the same substance?
**A.** Its Tmax is 55.63 min.

**Q.** What about the Cmax ([1]; individual animal) of the same substance?
**A.** Its Cmax is 40.93 uIU/mL and 96.77 uIU/mL and 5.03 uIU/mL and 7.96 uIU/mL and 48.77 uIU/mL and 85.38 uIU/mL and 207.96 uIU/mL and 126.39 uIU/mL.

**Q.** And the Tmax ([1]; individual animal)?
**A.** The Tmax was 20 min and 50 min and 90 min (2×) and 40 min (3×).

**Q.** And the “blood insulin level in animal 18P18” value ([1]; SC administration group, compared with rest of group)?
**A.** The value was “significantly higher than the rest of the animals in the group”.

**Q.** And the “Cmax of blood insulin, Average” value [1, 3]?
**A.** Its value is 202.94 uIU/mL.

**Q.** And the “Tmax of blood insulin, Average” value [1, 3]?
**A.** Its value is 1.452 h.

**Q.** And the “Cmax of blood insulin” value [1, 4]?
**A.** Its value is 451.00 uIU/mL and 60.74 uIU/mL and 354.00 uIU/mL and 356.60 uIU/mL and 65.71 uIU/mL and 59.18 uIU/mL and 73.34 uIU/mL.

**Q.** What about the “Tmax of blood insulin” value [1, 4] of the same substance?
**A.** Its value is 50 min (2×) and 180 min and 105 min and 30 min and 120 min.

**Q.** What about the “maximum plasma concentration Cmax, SC group compared with IJ group” value ([1]; SC versus IJ administration) of the same substance?
**A.** Its value is “higher than that of the IJ administration group”.

**Q.** What about the “time to maximum plasma concentration (Tmax)” value ([1]; jejunum (IJ) administration via jet delivery device, swine, group mean) of the same substance?
**A.** The value was 0.9272 h.

**Q.** What about the “mean blood glucose level” value (blood glucose; IJ administration group) of the same substance?
**A.** Its value is 89.6 mg/dL.

**Q.** And the “mean blood glucose level” value (blood glucose; SC administration group)?
**A.** The value was 83.5 mg/dL.

**Q.** And the “mean dextrose infusion rate, IJ versus SC group” value (blood glucose; from 75 minutes to 420 minutes post-administration)?
**A.** The value was “higher in the SC administration group”.

**Q.** With “dulaglutide: long-acting GLP-1 receptor agonist, GLP-1 analogue linked to modified human IgG4 Fc, about 63 kDa” as the substance, how does the “Bioavailability relative to IV” value [2] read?
**A.** The value was 26.51%.

**Q.** And the “Bioavailability relative to SC” value [2]?
**A.** The value was 49.11%.

**Q.** What about the “plasma level in one animal in Group 1 (no. 8487; ID)” value [2] of the same substance?
**A.** The value was “below the limit of detection”.

**Q.** What about the “(AUC)T0-T240 h ± SEM” value ([2]; 1.2 mg) of the same substance?
**A.** The value was 4355.86 ng·h/mL.

**Q.** What about the “AUCID (mean ± SEM)” value ([2]; 1.2 mg) of the same substance?
**A.** Its value is 3890.00 ± 94.73 ng·h/mL.

**Q.** What about the Cmax ([2]; 1.2 mg) of the same substance?
**A.** Its Cmax is 70.65 ng.

**Q.** What about the Tmax ([2]; 1.2 mg) of the same substance?
**A.** Its Tmax is 8 h.

**Q.** And the “Bioavailability relative to IV” value ([2]; iv)?
**A.** Its value is 100%.

**Q.** And the “(AUC)T0-T240 h ± SEM” value ([2]; iv, 1.2 mg)?
**A.** The value was 16429.33 ng·h/mL.

**Q.** And the Cmax ([2]; iv, 1.2 mg)?
**A.** Its Cmax is 632.93 ng.

**Q.** What about the Tmax ([2]; iv, 1.2 mg) of the same substance?
**A.** The Tmax was 1 h.

**Q.** And the “Bioavailability relative to SC” value ([2]; sc)?
**A.** The value was 100%.

**Q.** What about the “(AUC)T0-T240 h ± SEM” value ([2]; sc, 1.2 mg) of the same substance?
**A.** Its value is 8869 ng·h/mL.

**Q.** What about the Cmax ([2]; sc, 1.2 mg) of the same substance?
**A.** Its Cmax is 141.3 ng.

**Q.** What about the Tmax ([2]; sc, 1.2 mg) of the same substance?
**A.** Its Tmax is 6 h.
